The values that follow are results of earlier work, collected in paper PMC4485553.

The target in the data set is human IgG1, wild type (UniProt P01857). Briefly: not stated in this review. The settings on record: pH 6.

As usually defined, the KD is the free concentration of one partner at which half of the binding sites on the other are occupied at equilibrium, for simple one-to-one binding. As for FcRn (neonatal Fc receptor), mouse, the KD was 32 nM.
